Experimental data: patent US11021533 (VANDERBILT UNIVERSITY, dated 2021)

Target: ZIKV strain H/PF/2013 (French Polynesia, 2013) virus (Zika virus, strain H/PF/2013)
Experiment: cell-based or functional assay

B1: ZIKV-117 (antibody, V domains shown)
VH: QVQLVESGGGVVRPGGSLRLSCAASGFTFKNYGIHWVRQAPGKGPEWVAFVRYDGNNKYYADSVKGRFTISRDNAKNTLSLQMNSLRVEDTAVYFCARDPETFGGFDYWGQGTLVTVSS
VL: ETVMTQSPATLSVSPGERGTLSCRASESVSSNLAWYQQKPGKAPRLLIYGASTRATGIPDRFSGSGSGTEFTLTISSLQSEDFAVYYCQQYYYSPRTFGQGTKVEVK
FRNT50 (focus reduction neutralization test on Vero cells): 5 ng/mL

B2: ZIKV-116 (antibody, V domains shown)
VH: EVKLVESGRGLVRPGGSLRLSCAASGFTFSNYAMSWVRQGPGMGLEWVSTITADSDSKYYVDSVKGRFTISRDNSKDTLFLHMTSLRAEDTAVYYCAKDRLSRGVGELYDSWGQGTLVTVSQ
VL: DIQMTQSPSTLSASVGDRVTITCRASQSIDVWLAWYQQKPGKAPKLLMYKTSTLQTGVPSRFSGSGSGTEFTLTISSLQTDDFATYYCQKYDSYPWTFGPGTKVEIK
FRNT50 (focus reduction neutralization test on Vero cells): 16 ng/mL

B3: ZIKV-216 (antibody, V domains shown)
VH: EVQLVQSGAEGKKPGESLKISCKGSGYNFSNYWIGWVRQMPGKGLEWMGIIYPGDSDTRYSPSFQGQVTISADKSINTAYLQWRSLRASDSAMFYCARGVMITTPNPYDWFDAWGQGTLVTVSS
VL: QSALTQPASVSGSPGQSITISCTGTGSDIGTYDYVSWYQQHPGKAPKLMIYGVTKRPSGVSHRFSGSKSVNTASLTISGLQAEDEADYFCSSYSTSSTFVVFGGGTKLTVL
FRNT50 (focus reduction neutralization test on Vero cells): 16 ng/mL

B4: ZIKV-195 (antibody, V domains shown)
VH: QVQVVESGGGVVQPGRSLRLSCAASGFTFSSSAMHWVRQAPGKGLEWVAVISYDGSNKYYGDSVKGRFTISRDNSKNTLYLQMHSLRAEDTAVYYCAKDRDAYNTVGYFAYYYGMDVWGQGTLVTVSS
VL: QSVLTQPPSVSEAPRQRVTISCSGSSSNIGNNAVNWYQQLPGKAPKLLIYYDDLLPSGVSDRFSGSKSGTSASLAISGLQSEDEADYYCAAWDDSLTRYVFGTGTKVTVL
FRNT50 (focus reduction neutralization test on Vero cells): 346 ng/mL
